Source: patent publication EP4725966A1 (SHANGHAI RUOTUO BIOSCIENCES CO., LTD., dated 2024)
Numbering of substitutions follows the chain as printed. Numbers in names are those of the source.

T1: Human HER4-ECD-His (human, UniProt Q15303 26-651)
T1 construct: extracellular domain; not shown: His tag
T1 sequence (looked up): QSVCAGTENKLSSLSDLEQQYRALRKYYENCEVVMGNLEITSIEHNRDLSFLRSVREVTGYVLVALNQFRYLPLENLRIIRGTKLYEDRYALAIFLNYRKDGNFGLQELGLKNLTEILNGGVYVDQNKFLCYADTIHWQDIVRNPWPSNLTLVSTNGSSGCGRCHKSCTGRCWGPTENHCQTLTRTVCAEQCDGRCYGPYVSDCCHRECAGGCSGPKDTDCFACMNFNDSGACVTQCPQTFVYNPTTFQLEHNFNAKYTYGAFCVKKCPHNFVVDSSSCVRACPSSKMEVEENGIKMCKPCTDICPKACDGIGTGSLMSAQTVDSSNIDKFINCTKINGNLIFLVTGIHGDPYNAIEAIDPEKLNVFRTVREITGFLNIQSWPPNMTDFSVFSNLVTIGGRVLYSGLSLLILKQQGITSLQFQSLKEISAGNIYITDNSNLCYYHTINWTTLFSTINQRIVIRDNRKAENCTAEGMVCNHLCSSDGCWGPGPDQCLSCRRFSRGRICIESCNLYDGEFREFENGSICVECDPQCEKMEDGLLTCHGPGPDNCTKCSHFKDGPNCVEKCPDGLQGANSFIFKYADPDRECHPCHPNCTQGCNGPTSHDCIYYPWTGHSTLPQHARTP

B1: hHE4-G1W (antibody, human IgG1, V domains shown)
VH: QVQLVESGGGLVKPGGSLRLSCAASGFTFSSYVMSWVRQAPGKGLEWVATISDGDSSTYYADSVKGRFTISRDNAKNSLYLQMNSLRAEDTAVYYCARDKGHGYDEGAFVYWGQGTLVTVSS
VL: DIQMTQSPSSLSASVGDRVTITCRASENIYSYLAWYQQKPGKAPKLLIYNAKTLAEGVPSRFSGSGSGTDFTLTISSLQPEDFATYYCQNHYGTPYTFGQGTKLEIKR
notes: Humanized from cHE4-G1W; also called humanized HE4 antibody; not shown: human IgG1 heavy chain constant region; human light chain constant region
B2: cHE4-G1W (antibody, human IgG1, V domains shown)
VH: EVQLVESGGGLVKPGGSLKLSCAASGFTFSSYVMSWVRQTPEKRLEWVATISDGDSSTYYPDNVKGRFTISRDNAKNNLFLQMSHLKSEDTAMYFCARDKGHGYDEGAFVYWGQGTLVTVSA
VL: DIQMTQSPASLSASVEETVTITCRASENIYSYLAWYQQKQGKSPQLLVYNAKTLAEGVPSRFSGSGSGTEFSLKINSLQPEDFGSYYCQNHYGTPYTFGGGTKLEIKQ
notes: also called chimeric HE4 antibody; cHE4-G1W4; not shown: human IgG1 heavy chain constant region, GenBank AXN93653.1; human kappa light chain constant region, GenBank AWK57456.1
B3: patritumab (antibody, V domains shown)
VH: QVQLQQWGAGLLKPSETLSLTCAVYGGSFSGYYWSWIRQPPGKGLEWIGEINHSGSTNYNPSLKSRVTISVETSKNQFSLKLSSVTAADTAVYYCARDKWTWYFDLWGRGTLVTVSS
VL: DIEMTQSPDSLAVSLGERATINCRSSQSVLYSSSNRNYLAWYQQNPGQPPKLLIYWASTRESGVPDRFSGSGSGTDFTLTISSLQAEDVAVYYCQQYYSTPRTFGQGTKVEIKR
B4: cHE1-G1W (antibody, human IgG1, V domains shown)
VH: EVKLQESGPGLVKPSQSLSLTCSVTGYSITSGYYWNWIRQFPGNKLEWMGYISYDGSNNYNPSLKNRISITRDTSKNQFFLNLNSVTTEDTATYYCARVDWDGDAMDYWGQGTSVTVSS
VL: DIVLTQSPASLAVSLGQRATISCRASESVDNYGIRLMHWYQQKSGQPPKLLIHRASNLESGIPARFSGSGSRTDFTLTINPVETDDVATYYCQQSNKDPFTFGSGTKLEIKR
notes: also called chimeric HE1 antibody; not shown: human IgG1 heavy chain constant region, GenBank AXN93653.1; human kappa light chain constant region, GenBank AWK57456.1
B5: cHE5-G1W (antibody, human IgG1, V domains shown)
VH: B4 VH with K3Q, N82K, R98S, V99Y, W101Y, A105W, M106F, D107A, S114L, S119A
VL: B4 VL with N31H, I34S, R35S, L36F, S44P, H53Y, L58P, F100P, S104G
notes: also called chimeric HE5 antibody; not shown: human IgG1 heavy chain constant region, GenBank AXN93653.1; human kappa light chain constant region, GenBank AWK57456.1
B6: cHE2-G1W (antibody, human IgG1, V domains shown)
VH: B4 VH with N82K, V99M
VL: B4 VL with R35S, S44P, H53Y, F100P, S104A, I110L
notes: also called chimeric HE2 antibody; not shown: human IgG1 heavy chain constant region, GenBank AXN93653.1; human kappa light chain constant region, GenBank AWK57456.1
B7: cHE6-G1W (antibody, human IgG1, V domains shown)
VH: EVQLQQSGPDLVKPGTSVKMSCKASGYTFTDYYMHWVRQSHGKSLEWIGYINPNNGDAIYNQKFKGKATLTVNKSSTTAYMALRSLTSEDSAVYFCATYDYGGDFYFDVWGTGTTVTVSS
VL: DIELTQSPALMSASPGEKVTMTCSASSSVSYMYWYQQKPRSSPKPWIYLTSNLASGVPARFSGSGSGTSYSLTISSMEAEDAATYYCQQWSRNPLTFGAGTKLELKR
notes: also called chimeric HE6 antibody; not shown: human IgG1 heavy chain constant region, GenBank AXN93653.1; human kappa light chain constant region, GenBank AWK57456.1
B8: cHE7-G1W (antibody, human IgG1, V domains shown)
VH: B7 VH with N73D
VL: B7 VL
notes: also called chimeric HE7 antibody; not shown: human IgG1 heavy chain constant region, GenBank AXN93653.1; human kappa light chain constant region, GenBank AWK57456.1
B9: hHE4-G1W-DXd (antibody, V domains shown)
VH: B1 VH
VL: B1 VL
modifications: maleimide-GGFG-DXd conjugated to cysteines of reduced interchain disulfide bonds; antibody-to-DXd ratio 1:8
notes: not shown: human IgG1 heavy chain constant region; human light chain constant region

Target: T2, human HER3-ECD-His (human, UniProt P21860 20-643)
T2 construct: extracellular domain; Fusion protein of the extracellular domain of human HER3 and a His tag; also called hHER3-ECD-His; human HER3 extracellular domain protein; not shown: His tag
Test: Octet (BLI)

| KD fold lower than patritumab | Binder |
| --- | --- |
| ~10 fold | B1 |

Target: T3, cynomolgus HER3-ECD-His (cynomolgus monkey, UniProt G7PIG5 20-643)
T3 construct: extracellular domain; Bought protein (Sino Biological); also called Cyno HER3-ECD-His; Cyno HER3; not shown: His tag
Test: Octet (BLI)

T3 sequence (G7PIG5 entry or part of it): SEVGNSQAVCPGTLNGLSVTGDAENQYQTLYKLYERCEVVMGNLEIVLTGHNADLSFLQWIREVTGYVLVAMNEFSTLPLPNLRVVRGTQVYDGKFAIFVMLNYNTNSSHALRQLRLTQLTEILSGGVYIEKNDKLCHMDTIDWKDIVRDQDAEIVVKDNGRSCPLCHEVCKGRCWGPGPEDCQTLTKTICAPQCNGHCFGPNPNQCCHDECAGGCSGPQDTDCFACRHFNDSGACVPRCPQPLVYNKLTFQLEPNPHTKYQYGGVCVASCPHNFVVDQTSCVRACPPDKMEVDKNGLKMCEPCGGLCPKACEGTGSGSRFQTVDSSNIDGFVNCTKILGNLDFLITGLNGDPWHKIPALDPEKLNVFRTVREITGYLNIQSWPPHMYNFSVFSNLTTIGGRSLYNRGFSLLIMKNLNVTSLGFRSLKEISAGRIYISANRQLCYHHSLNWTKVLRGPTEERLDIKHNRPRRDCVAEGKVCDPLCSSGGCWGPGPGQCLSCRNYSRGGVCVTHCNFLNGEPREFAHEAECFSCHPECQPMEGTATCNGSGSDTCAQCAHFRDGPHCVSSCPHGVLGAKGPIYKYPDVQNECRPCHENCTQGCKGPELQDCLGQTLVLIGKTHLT

| KD fold lower than patritumab | Binder |
| --- | --- |
| ~10 fold | B1 |

Target: T2, human HER3-ECD-His
Test: Octet (BLI)
Remark: another data set of the same source

| Kd | koff | kon | Binder |
| --- | --- | --- | --- |
| 0.233 nM | 0.000112 s⁻¹ | 482000 M⁻¹ s⁻¹ | B2 |
| 0.199 nM | 9.84e-05 s⁻¹ | 495000 M⁻¹ s⁻¹ | B1 |
| 1.33 nM | 0.000296 s⁻¹ | 222000 M⁻¹ s⁻¹ | B3 |

Target: T3, cynomolgus HER3-ECD-His
Test: Octet (BLI)
Remark: another data set of the same source

| Kd | koff | kon | Binder |
| --- | --- | --- | --- |
| 0.227 nM | 9.63e-05 s⁻¹ | 425000 M⁻¹ s⁻¹ | B2 |
| 0.208 nM | 9.11e-05 s⁻¹ | 439000 M⁻¹ s⁻¹ | B1 |
| 1.92 nM | 0.000371 s⁻¹ | 194000 M⁻¹ s⁻¹ | B3 |

Target: T1, Human HER4-ECD-His
Test: ELISA on coated Human HER4-ECD-His, antibody 25 nM to 0.011 nM

| binding result | Binder |
| --- | --- |
| no binding (tested: 25 nM) | B1 |

Target: T4, Human EGFR-ECD-His (human, UniProt P00533 25-645)
T4 construct: extracellular domain; not shown: His tag
Test: ELISA on coated Human EGFR-ECD-His, antibody 25 nM to 0.011 nM

| binding result | Binder |
| --- | --- |
| no binding (tested: 25 nM) | B1 |

Target: T5, Human HER2-ECD-His (human, UniProt P04626 23-652)
T5 construct: extracellular domain; not shown: His tag
Test: ELISA on coated Human HER2-ECD-His, antibody 25 nM to 0.011 nM

| binding result | Binder |
| --- | --- |
| no binding (tested: 25 nM) | B1 |

Target: T2, human HER3-ECD-His
Test: Octet (BLI)
Remark: another data set of the same source

| Kd | koff | kon | Binder |
| --- | --- | --- | --- |
| 0.409 nM | 0.000234 s⁻¹ | 573000 M⁻¹ s⁻¹ | B2 |
| 4.88 nM | 0.00356 s⁻¹ | 728000 M⁻¹ s⁻¹ | B4 |
| 3.56 nM | 0.00253 s⁻¹ | 710000 M⁻¹ s⁻¹ | B5 |
| 3.57 nM | 0.00308 s⁻¹ | 861000 M⁻¹ s⁻¹ | B6 |
| 0.869 nM | 0.000224 s⁻¹ | 258000 M⁻¹ s⁻¹ | B3 |
| 0.00114 nM | 5.11e-07 s⁻¹ | 450000 M⁻¹ s⁻¹ | B7 |
| 0.00131 nM | 5.57e-07 s⁻¹ | 425000 M⁻¹ s⁻¹ | B8 |

Target: T3, cynomolgus HER3-ECD-His
Test: Octet (BLI)
Remark: another data set of the same source

| Kd | koff | kon | Binder |
| --- | --- | --- | --- |
| 0.31 nM | 0.000116 s⁻¹ | 374000 M⁻¹ s⁻¹ | B2 |
| 4.01 nM | 0.0017 s⁻¹ | 423000 M⁻¹ s⁻¹ | B4 |
| 3.58 nM | 0.00154 s⁻¹ | 429000 M⁻¹ s⁻¹ | B5 |
| 3.25 nM | 0.00165 s⁻¹ | 507000 M⁻¹ s⁻¹ | B6 |
| 2.34 nM | 0.000306 s⁻¹ | 131000 M⁻¹ s⁻¹ | B3 |
| 1.25 nM | 0.000706 s⁻¹ | 565000 M⁻¹ s⁻¹ | B7 |
| 1.36 nM | 0.000912 s⁻¹ | 672000 M⁻¹ s⁻¹ | B8 |

Target: T6, cynomolgus HER3 on CHO cells (cynomolgus monkey, UniProt G7PIG5 20-1342)
T6 construct: whole, on cells; also called CHO cells overexpressing cynomolgus HER3; CHO cells overexpressing cynomolgus monkey HER3
Test: FACS on CHO cells overexpressing cynomolgus HER3

T6 sequence (G7PIG5 entry or part of it): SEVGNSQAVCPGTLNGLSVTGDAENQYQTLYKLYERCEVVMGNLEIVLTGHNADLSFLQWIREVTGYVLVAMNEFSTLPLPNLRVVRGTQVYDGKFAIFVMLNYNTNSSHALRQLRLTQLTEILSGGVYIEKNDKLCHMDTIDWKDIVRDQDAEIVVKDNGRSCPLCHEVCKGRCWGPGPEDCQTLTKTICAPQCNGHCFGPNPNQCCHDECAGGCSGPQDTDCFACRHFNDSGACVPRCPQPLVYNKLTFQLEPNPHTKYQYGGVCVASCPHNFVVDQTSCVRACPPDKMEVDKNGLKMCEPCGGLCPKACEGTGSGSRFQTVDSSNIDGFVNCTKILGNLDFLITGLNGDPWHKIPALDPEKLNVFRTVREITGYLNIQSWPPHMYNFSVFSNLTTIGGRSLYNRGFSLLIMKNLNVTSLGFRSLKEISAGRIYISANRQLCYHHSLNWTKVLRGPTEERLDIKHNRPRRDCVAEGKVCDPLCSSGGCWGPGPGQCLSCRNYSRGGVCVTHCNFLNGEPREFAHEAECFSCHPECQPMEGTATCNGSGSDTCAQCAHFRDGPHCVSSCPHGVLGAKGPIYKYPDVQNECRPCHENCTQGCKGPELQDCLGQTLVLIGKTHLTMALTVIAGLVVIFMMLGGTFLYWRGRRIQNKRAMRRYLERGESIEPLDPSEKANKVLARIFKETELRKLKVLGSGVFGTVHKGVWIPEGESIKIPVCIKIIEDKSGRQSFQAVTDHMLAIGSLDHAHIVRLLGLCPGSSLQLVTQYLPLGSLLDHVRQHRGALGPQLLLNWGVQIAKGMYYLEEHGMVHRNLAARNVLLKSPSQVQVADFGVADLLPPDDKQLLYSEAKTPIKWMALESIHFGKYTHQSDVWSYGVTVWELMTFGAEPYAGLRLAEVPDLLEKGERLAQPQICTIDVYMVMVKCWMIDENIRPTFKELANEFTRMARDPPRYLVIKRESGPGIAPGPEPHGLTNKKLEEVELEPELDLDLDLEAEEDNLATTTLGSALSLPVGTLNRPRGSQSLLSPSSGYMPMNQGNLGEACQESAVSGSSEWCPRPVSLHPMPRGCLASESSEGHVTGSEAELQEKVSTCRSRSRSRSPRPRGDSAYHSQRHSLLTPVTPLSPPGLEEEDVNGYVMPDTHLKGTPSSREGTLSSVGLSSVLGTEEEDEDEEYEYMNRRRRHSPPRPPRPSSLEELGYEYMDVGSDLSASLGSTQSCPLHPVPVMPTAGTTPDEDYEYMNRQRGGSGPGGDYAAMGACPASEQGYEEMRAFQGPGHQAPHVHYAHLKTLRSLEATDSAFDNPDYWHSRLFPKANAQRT

| EC50 fold against patritumab | Binder |
| --- | --- |
| 2 fold | B2 |

Target: T7, human HER3 on cells (human, UniProt P21860 20-1342)
T7 construct: whole, on cells; also called Human HER3-CHO; CHO cells overexpressing human HER3
Test: fluorescence imaging of HER3-overexpressing A375 cells, 100 nM, 0 hour

| binding result | Binder |
| --- | --- |
| binds | B9 |
